Results reported in patent publication US7786356B2, “Method for the production of calendic acid, a fatty acid containing delta 8,10,12 conjugated double bonds and related fatty acids having a modification at the delta 9 position” (E.I. du Pont de Nemours and Company, priority 1999, dated 2010).

How the values were obtained:
tobacco callus = test: Expression of CalFad2-1 in tobacco callus, GC/GC-MS of fatty acid methyl esters; assay type: cell-based, Nicotiana tabacum cv. Xanthi; conditions: stably transformed tobacco callus, 35S promoter
Text: To characterize the activity of the CalFad2-1 in transgenic plant cells, the cDNA (ecs1c.pk009.n14) encoding this enzyme was expressed in tobacco callus with the gene under control of the cauliflower mosaic virus 35S promoter. The open-reading frame of the cDNA for CalFad2-1 was amplified by PCR to generate flanking […] restriction enzyme sites for cloning into the plant expression vector. The sequence of the sense oligonucleotide used in the amplification reaction was 5′-tttgagctc[…]-3′ (SEQ ID NO:16), and the sequence of the antisense oligonucleotide was 5′-tttggatcc[…]-3′ (SEQ ID NO: 17) [Note: the bases in lower case contain the added restriction sites, which are underlined, and flanking sequence to facilitate restriction enzyme digestion]. The design of the PCR primers was based on the sequence of the CalFad2-1 cDNA shown in SEQ ID NO:1. […]
Kanamycin-resistant tobacco callus that resulted from the transformation was examined for the presence of calendic acid arising from the activity of CalFad2-1. […] The recovered fatty acid methyl esters were then analyzed using a Hewlett-Packard 6890 chromatograph fitted with an Omegawax 320 column (30 m×0.32 mm inner diameter; Supelco). […] Fatty acid methyl prepared from the transgenic tobacco callus was analyzed with an HP6890 interfaced with a HP5973 (Hewlett-Packard) mass selective detector. […]

[1] = system: Saccharomyces cerevisiae INVSc1 cells; test: Expression of CalFad2-1 and CalFad2-2 in Saccharomyces cerevisiae; assay type: cell-based; conditions: cells grown in media containing 2 mM linoleic acid, 4 days at 16° C.; (w/w) of total fatty acids
Text: The Calendula officinalis clones CalFad2-1 and CalFad2-2 were digested with the restriction enzymes EcoRI and XhoI. The resulting DNA fragments containing the entire cDNA inserts were purified by agarose gel electrophoresis. The purified cDNAs were ligated into the EcoRI and XhoI sites of the Saccharomyces cerevisiae expression vector pYES2 (Invitrogen) using T4 DNA ligase (New England Biolabs). The resulting plasmids pYes2/CalFad2-1 and pYes2/CalFad2-2 were introduced into Saccharomyces cerevisiae INVSc1 (Invitrogen Corp.) cells by lithium acetate-mediated transformation [Sherman F, Fink G R, Hicks J B, Methods in Yeast Genetics: A Laboratory Course Manual, Cold Spring Harbor Lab. Press, Plainview, N.Y. (1987)]. Transformed cells were selected for their ability to grow in the absence of uracil. […] In cells grown in media containing linoleic acid, calendic acid (18:3Δ^8trans,10trans,12cis) was detected in amounts of up to 2.9% (w/w) of the total fatty acids of cultures expressing CalFad2-1 (FIG. 3) and in amounts of up to 0.2% of the total fatty acids of cultures expressing CalFad2-2. […] No calendic acid was detected in cultures harboring the expression vector without a cDNA insert or in cells grown in the absence of exogenous linoleic acid. […]

B1: CalFad2-1: Calendula officinalis fatty acid modifying enzyme (cDNA SEQ ID NO:1, protein SEQ ID NO:2) forming conjugated double bonds at delta-9 position (protein, listed as Calendula officinalis)
chain: MGKGASNKKVLERVPITKPPFEYNDLKKAVPPHCFSRPLFRSFYFLLHDIIVTCILFYVASNYIPMLPGFLSYIVWPVYWISQGVFLGRLWMIGHECGHHSFSNYRWVDDSVGFLIHTATLTPYFSFKYSHRNHHAHTNSMEYDEVHIPKRKSEALDLYFEFLGNNPMGLMITMLCKLTFGYAAYIMFNYTGKKHKSGGLASHFYPQSPLFNDSERNHVLFSDVGICIVLYACYRIVMVTGAMSAFYVYGIPWVIMSAILFAATYLQHTHPSIPHYDTTEWNWLRGALSTIDRDLGFFNMNKTHYHVIHHLFPVIPEYHAQEATEAIKPILGQYYKYDGTPFLKALWREMKDCIYVESDQGQKKQGIYWFKNKI
methyl calendic acid, amount of the total fatty acids (tobacco callus): up to 11.4 % of the total fatty acids | calendic acid (18:3Δ8trans,10trans,12cis), amount of the total fatty acids [1]: up to 2.9%
